For the assay, the target named is trimeric stem polypeptides with H7 like residues at the beta2/beta3 loop, A-helix and lower part of the stem (FIG. 13A). In words: Binding-AlphaLISA, Expi293F supernatant, normalized to UFV172561. A general note: Alpha assays give light when donor and acceptor beads are brought close together.

Chain of CR9114 (antibody) (VH): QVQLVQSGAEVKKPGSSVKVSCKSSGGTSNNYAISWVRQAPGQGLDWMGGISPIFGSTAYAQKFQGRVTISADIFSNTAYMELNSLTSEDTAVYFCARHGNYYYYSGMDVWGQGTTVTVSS
Chain of CR9114 (antibody) (VL): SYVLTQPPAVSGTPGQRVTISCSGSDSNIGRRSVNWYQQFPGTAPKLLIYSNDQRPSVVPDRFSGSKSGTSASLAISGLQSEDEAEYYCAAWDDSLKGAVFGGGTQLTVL

CR9114 (antibody) returned a variation in antibody binding relative to reference UFV172561 of 20%.

Source of the values: US20230250135A1.
